Reference: PMC12305709, “Functional investigation of the RNA helicase MOV10 with respect to its interplay with factors involved in nonsense-mediated mRNA decay” (The Journal of Biological Chemistry, 2025)
Each block holds one molecule with its values, some of them ahead of it.

Key:
[1] = biological target: GST-MOV10NTD-UPF1hel (human) (UniProt Q92900)
UPF1 [2] = biological target: T1, UPF1 (Homo sapiens, UniProt Q92900-2 115-914)
T1 sequence: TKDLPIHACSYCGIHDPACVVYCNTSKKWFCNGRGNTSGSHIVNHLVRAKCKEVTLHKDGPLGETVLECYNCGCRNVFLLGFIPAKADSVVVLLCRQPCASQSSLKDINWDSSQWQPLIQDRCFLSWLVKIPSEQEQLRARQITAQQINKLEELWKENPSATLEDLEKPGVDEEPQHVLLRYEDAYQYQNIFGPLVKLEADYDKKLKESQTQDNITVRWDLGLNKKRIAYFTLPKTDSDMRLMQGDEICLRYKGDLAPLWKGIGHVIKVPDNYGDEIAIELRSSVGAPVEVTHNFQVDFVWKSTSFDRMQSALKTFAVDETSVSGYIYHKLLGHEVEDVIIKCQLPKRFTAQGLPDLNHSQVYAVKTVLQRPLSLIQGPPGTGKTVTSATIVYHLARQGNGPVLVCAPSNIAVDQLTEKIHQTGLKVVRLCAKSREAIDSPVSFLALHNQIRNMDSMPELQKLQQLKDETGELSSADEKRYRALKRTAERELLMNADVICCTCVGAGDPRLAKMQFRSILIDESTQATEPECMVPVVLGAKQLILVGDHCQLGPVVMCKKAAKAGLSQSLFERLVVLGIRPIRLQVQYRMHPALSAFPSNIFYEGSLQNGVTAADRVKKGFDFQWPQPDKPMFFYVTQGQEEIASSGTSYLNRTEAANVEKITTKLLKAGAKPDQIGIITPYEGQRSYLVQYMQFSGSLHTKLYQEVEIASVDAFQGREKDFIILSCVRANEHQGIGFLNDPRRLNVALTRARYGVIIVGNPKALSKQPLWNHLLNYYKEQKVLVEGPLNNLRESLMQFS

[3] = biological target: T2, MOV10NTD-UPF1hel (Chimera 3) (Homo sapiens, UniProt Q9HCE1 1-264+=GSAGAAGSGA+Q92900-2:295-914, internal_change); assay: fluorescence anisotropy; no nucleotide; 1 mM Mg2+; 20 mM Hepes pH 7.5, 100 mM NaCl, 1 mM MgCl2, 100 ug/ml BSA; 5 nM RNA; 30 min room temperature, read at 25 C; details: protein: recombinant; tags: 6xHis, His-Trx or His-GST fusion in E. coli; label: 5' 6-FAM; single strand
T2 sequence: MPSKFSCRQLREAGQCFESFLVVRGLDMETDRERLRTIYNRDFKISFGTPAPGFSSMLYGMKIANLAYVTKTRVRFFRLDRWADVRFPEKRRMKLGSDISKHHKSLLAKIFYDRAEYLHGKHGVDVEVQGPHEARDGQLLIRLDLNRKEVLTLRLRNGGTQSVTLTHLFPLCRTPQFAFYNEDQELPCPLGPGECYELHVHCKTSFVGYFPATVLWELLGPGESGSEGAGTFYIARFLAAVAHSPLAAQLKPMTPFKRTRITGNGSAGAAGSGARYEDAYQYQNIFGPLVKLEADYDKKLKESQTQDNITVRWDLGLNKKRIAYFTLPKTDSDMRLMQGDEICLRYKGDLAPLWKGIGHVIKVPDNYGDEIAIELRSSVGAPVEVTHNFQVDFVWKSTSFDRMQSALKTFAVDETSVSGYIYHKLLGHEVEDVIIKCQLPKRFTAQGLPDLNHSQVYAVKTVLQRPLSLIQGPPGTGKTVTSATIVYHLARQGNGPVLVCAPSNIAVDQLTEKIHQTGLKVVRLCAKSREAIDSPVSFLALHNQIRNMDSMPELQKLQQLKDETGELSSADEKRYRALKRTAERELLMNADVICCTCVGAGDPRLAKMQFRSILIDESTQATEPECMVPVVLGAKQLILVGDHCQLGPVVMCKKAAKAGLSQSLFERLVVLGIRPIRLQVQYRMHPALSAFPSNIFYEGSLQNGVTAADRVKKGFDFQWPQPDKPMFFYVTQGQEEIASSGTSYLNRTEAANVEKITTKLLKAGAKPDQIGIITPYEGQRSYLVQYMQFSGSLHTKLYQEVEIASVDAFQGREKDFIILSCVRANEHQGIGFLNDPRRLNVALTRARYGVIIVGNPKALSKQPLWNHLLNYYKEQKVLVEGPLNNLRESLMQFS

UPF1 [4] = biological target: T1, UPF1; assay: fluorescence anisotropy; no nucleotide; affinity comparable to P1; Kd only in figure; 20 mM Hepes pH 7.5, 100 mM NaCl, 1 mM MgCl2, 100 ug/ml BSA; 5 nM RNA; 30 min room temperature, read at 25 C; details: protein: recombinant; tags: 6xHis, His-Trx or His-GST fusion in E. coli; label: 5' 6-FAM; single strand
Flag-MOV10hel = biological target: T3, Flag-MOV10hel (human, UniProt Q9HCE1 289-1001); assay: co-IP; as a2, but cell lysates treated with RNase A (60 ug/uL, 10 min, 25 C); SDS-PAGE, Coomassie, densitometry of the UPF2 band; details: both partners purified
T3 construct: MOV10, human, helicase core, residues 289-1001; also called helicase core of MOV10; source: HEK293, transfected, immunopurified on anti-Flag M2 agarose
T3 sequence (looked up): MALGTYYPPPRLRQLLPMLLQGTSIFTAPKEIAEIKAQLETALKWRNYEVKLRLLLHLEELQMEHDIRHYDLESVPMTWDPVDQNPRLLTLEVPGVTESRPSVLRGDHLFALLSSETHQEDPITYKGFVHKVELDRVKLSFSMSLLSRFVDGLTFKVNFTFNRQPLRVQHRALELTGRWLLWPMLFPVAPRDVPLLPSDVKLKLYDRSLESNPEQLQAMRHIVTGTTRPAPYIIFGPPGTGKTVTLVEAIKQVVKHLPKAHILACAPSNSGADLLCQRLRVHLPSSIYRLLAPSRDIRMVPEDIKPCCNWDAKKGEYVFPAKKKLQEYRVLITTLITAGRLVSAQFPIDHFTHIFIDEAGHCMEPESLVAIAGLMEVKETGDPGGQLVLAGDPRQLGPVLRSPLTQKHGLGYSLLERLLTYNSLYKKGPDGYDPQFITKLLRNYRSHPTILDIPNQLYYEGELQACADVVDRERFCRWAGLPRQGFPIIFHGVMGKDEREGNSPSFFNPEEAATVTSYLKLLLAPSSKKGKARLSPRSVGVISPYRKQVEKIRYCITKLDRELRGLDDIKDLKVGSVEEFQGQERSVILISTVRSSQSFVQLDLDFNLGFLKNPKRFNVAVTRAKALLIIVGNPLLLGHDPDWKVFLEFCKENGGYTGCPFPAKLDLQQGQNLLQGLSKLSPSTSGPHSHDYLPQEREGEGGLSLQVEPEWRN

Chain of GST-MOV10NTD-UPF1hel (human) (Q92900 whole entry, looked up): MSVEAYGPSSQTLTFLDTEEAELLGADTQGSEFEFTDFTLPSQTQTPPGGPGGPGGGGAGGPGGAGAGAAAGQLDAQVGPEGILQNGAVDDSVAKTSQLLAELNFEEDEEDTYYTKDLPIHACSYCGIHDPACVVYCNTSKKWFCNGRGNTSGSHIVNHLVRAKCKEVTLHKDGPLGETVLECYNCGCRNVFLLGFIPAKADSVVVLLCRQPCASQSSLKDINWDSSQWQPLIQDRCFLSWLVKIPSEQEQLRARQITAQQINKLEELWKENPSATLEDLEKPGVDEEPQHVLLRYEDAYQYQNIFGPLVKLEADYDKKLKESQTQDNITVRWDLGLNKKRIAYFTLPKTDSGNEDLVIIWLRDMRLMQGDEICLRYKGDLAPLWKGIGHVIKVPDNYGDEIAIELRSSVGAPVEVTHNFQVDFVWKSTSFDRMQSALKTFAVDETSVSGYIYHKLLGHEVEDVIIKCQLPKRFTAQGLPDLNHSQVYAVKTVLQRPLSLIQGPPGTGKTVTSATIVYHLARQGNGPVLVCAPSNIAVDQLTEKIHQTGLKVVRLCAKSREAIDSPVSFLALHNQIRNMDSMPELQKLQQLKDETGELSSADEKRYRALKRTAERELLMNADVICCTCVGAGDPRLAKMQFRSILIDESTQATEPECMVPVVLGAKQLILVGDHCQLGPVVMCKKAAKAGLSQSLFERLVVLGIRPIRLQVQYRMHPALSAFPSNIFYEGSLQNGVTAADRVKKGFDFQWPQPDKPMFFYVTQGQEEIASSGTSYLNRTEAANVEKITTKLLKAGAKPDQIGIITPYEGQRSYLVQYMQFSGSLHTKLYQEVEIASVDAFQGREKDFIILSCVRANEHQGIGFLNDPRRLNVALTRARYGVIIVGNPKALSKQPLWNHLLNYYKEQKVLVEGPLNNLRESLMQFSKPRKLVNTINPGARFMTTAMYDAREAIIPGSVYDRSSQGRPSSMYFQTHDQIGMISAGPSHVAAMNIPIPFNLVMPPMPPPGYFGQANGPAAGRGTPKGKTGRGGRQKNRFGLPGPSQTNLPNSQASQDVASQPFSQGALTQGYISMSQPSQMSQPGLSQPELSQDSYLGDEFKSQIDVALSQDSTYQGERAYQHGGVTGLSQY

RNA-dependent ATPase activity of MOV10NTD-UPF1hel upon addition of UPF2 (1.5-fold excess), against the chimera alone [1]: 1.1 fold
nucleic acid unwinding activity of MOV10NTD-UPF1hel (300 nM) upon addition of UPF2 (600 nM), against the chimera alone [1]: 1.25 fold
RNA-dependent ATPase activity of UPF1 upon addition of UPF2 (1.5-fold excess), against UPF1 alone (UPF1 [2]): 2.4 fold
Molecule: UPF2s (domain or fragment)

Molecule: UUUUUUUUUUUU (ssRNA) [U12 RNA]
Kd [3]: 36 nM
binding result (UPF1 [4]): binds

fold less UPF2 coprecipitated than with Flag-MOV10fl and Flag-MOV10NTD (Flag-MOV10hel): ~4 fold less
B1: UPF2 (near full-length variant, residues 121-1227) (domain or fragment, human, UniProt Q9HAU5 121-1227, looked up)
chain: MKEKEESIQLHQEAWERHHLRKELRSKNQNAPDSRPEENFFSRLDSSLKKNTAFVKKLKTITEQQRDSLSHDFNGLNLSKYIAEAVASIVEAKLKISDVNCAVHLCSLFHQRYADFAPSLLQVWKKHFEARKEEKTPNITKLRTDLRFIAELTIVGIFTDKEGLSLIYEQLKNIINADRESHTHVSVVISFCRHCGDDIAGLVPRKVKSAAEKFNLSFPPSEIISPEKQQPFQNLLKEYFTSLTKHLKRDHRELQNTERQNRRILHSKGELSEDRHKQYEEFAMSYQKLLANSQSLADLLDENMPDLPQDKPTPEEHGPGIDIFTPGKPGEYDLEGGIWEDEDARNFYENLIDLKAFVPAILFKDNEKSCQNKESNKDDTKEAKESKENKEVSSPDDLELELENLEINDDTLELEGGDEAEDLTKKLLDEQEQEDEEASTGSHLKLIVDAFLQQLPNCVNRDLIDKAAMDFCMNMNTKANRKKLVRALFIVPRQRLDLLPFYARLVATLHPCMSDVAEDLCSMLRGDFRFHVRKKDQINIETKNKTVRFIGELTKFKMFTKNDTLHCLKMLLSDFSHHHIEMACTLLETCGRFLFRSPESHLRTSVLLEQMMRKKQAMHLDARYVTMVENAYYYCNPPPAEKTVKKKRPPLQEYVRKLLYKDLSKVTTEKVLRQMRKLPWQDQEVKDYVICCMINIWNVKYNSIHCVANLLAGLVLYQEDVGIHVVDGVLEDIRLGMEVNQPKFNQRRISSAKFLGELYNYRMVESAVIFRTLYSFTSFGVNPDGSPSSLDPPEHLFRIRLVCTILDTCGQYFDRGSSKRKLDCFLVYFQRYVWWKKSLEVWTKDHPFPIDIDYMISDTLELLRPKIKLCNSLEESIRQVQDLEREFLIKLGLVNDKDSKDSMTEGENLEEDEEEEEGGAETEEQSGNESEVNEPEEEEGSDNDDDEGEEEEEENTDYLTDSNKENETDEENTEVMIKGGGLKHVPCVEDEDFIQALDKMMLENLQQRSGESVKVHQLDVAIPLHLKSQLRKGPPLGGGEGEAESADTMPFVMLTRKGNKQQFKILNVPMSSQLAANHWNQQQAEQEERMRMKKLTLDINERQEQED
notes: UPF2, human, residues 121-1227; also called near full-length UPF2
